Laboratory results published in paper PMC8326396, “Label-free Electrochemical Impedance Spectroscopy Aptasensor for Ultrasensitive Detection of Lung Cancer Biomarker Carcinoembryonic Antigen”.

Target: carcinoembryonic antigen (CEA) (UniProt P06731 35-685)
Assay: electrochemical impedance spectroscopy; CEA 0.2-15.0 ng/ml linear range; LOD 0.085 ng/ml (not a Kd); CEA incubated on electrode 1 h at 37 C (70 min found optimal), wash with 0.01 M [Fe(CN)6] PBS pH 7.4; EIS in 5 mM [Fe(CN)6]3-/4-, 0.1 M PBS pH 7.0, KCl (0.1 M or 1 M, stated inconsistently)
Conditions: protein: commercial

carcinoembryonic antigen (CEA), sequence (P06731 35-685): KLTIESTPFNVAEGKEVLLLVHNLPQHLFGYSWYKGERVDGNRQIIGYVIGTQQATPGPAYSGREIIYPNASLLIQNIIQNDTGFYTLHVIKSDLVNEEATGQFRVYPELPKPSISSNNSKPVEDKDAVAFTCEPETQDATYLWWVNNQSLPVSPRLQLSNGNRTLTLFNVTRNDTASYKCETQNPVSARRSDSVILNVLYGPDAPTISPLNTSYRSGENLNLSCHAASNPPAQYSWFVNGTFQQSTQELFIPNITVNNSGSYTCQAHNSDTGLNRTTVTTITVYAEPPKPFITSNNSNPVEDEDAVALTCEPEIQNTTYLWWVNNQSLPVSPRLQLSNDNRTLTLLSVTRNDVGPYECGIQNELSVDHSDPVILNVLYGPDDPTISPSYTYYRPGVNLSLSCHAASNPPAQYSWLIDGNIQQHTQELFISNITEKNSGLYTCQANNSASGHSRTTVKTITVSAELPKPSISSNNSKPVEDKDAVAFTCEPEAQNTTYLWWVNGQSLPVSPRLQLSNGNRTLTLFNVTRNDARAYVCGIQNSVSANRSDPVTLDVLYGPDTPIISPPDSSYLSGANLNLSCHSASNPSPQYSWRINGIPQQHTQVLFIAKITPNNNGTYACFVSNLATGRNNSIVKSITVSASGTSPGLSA

ATACCAGCTTATTCAATT (ssDNA, 5'-SH (thiol)) [CEA aptamer (CEA-A)]: binds.
